In patent publication US20040157289 one finds aggregate size data, which are given here for two substances.

Series [1] is described as follows: Superose gel exclusion chromatography, self-association.
Series [2] is described as follows: aggregate size given for comparison with the gel exclusion result, self-association.

Turning to alpha A crystallin Δ51+ construct, the aggregate size entry in series [1] is listed as “calculated to be 60,000 daltons, which corresponds in size to a tetramer”. As to “wild type α-crystallin (alpha A crystallin)”, in series [2], the aggregate size result was “about 800,000 daltons, depending on solution conditions”.
